In article PMC5741177 one finds binding result and Kd data, which are given here for four molecules.

Series [1] deals with T1, brHis2 (UniProt P03069, L230H;R234H).
T1 chain: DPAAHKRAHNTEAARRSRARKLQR
Nature of the series: EMSA. (In general: In EMSA bound probe runs differently from free probe, usually more slowly.)

For series [2], the target named is T1, brHis2. Nature of the series: EMSA.
The target in another series is T2, br2(SS) (UniProt P03069 226-248+=GGC, internal_change).
T2 chain: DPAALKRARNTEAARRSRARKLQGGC
Nature of the series: EMSA.

Series [3] addresses T1, brHis2. Nature of the series: fluorescence anisotropy. A general note: Fluorescence polarisation rises when a labelled molecule tumbles more slowly, as on binding a larger partner.
The next series deals with T3, br (UniProt P03069).
T3 chain: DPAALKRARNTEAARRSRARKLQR
The series can be described thus: EMSA.

The target in another series is T4, brHis (UniProt P03069, R234H).
T4 chain: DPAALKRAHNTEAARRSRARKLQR
The series can be described thus: EMSA.

In general, Kd refers to the constant that tells how readily two partners part at equilibrium. High values mean lower affinity, low ones higher affinity.

Read-outs that look alike come from different tables or passages of the source.

B1: MUT (dsDNA)
DNA 1: CGCGTGATAATTGAGAGCGC
DNA 2: GCGCTCTCAATTATCACGCG
As to B1, the binding result with brHis2 [1] was “no binding”.

B2: AP-1 (dsDNA)
DNA 1: TGGAGATGACGTCATCTCGT
DNA 2: ACGAGATGACGTCATCTCCA
Take B2: the binding result with brHis2 [2] and in the series with br2(SS) was “binds” in each case.

B3: TMR-GTCAT (dsDNA)
DNA 1: CGCGTCATAATTGAGAGCGC
DNA 2: GCGCTCTCAATTATGACGCG
B3: the Kd with brHis2 [3] was ~24 nM.

B4: GTCAT (dsDNA)
DNA 1: CGCGTCATAATTGAGAGCGC
DNA 2: GCGCTCTCAATTATGACGCG
Turning to B4, the binding result in the series with br and with brHis was “no binding” each time.
